Measured values as given in patent publication US20040076637A1, “HIV-derived HR1 peptides modified to form stable trimers, and their use in therapy to inhibit transmission of human immunodeficiency virus” (priority 2002, published 2004).

Assays:
HIV infection of T cells = details: cited from earlier work
[1] = at concentrations of 5 μM or less; cited from earlier work
[2] = Oligomerization state by sedimentation equilibrium (analytical ultracentrifuge); type: physicochemical; details: in solution, 4° C.
Procedure: Oligomerization state was assessed by using methods standard in the art for performing sedimentation equilibrium experiments and for analysis of the resultant data. In that regard, sedimentation equilibrium experiments were performed over a concentration range of synthetic peptide (1 μM to […]) as follows. Briefly, six-channel cells (12 mm optical path length) were used with an An-60 Ti rotor operated at 13,500 rpm, 18,000 rpm, 22,000 rpm, and 35,000 rpm) in an analytical ultracentrifuge at 4° C. The cell radii were scanned using 0.001 cm steps with 10 averages/scan at 3 different wavelengths (235 nm, 240 nm, 280 nm). Data obtained with solutions containing synthetic peptide was analyzed using a single species model to determine a weight-averaged molecular weight (MW). Diagnostic plots of MW/MW0 vs. rpm/rpm0 and MW vs. radial concentration were used to test for sample homogeneity. When systemic residuals or a MW higher than monomer molecular weight indicated the presence of self-association, associative models were investigated. The suitability of a model (goodness of fit) was judged by the trends observed in the residuals.

[3] = test system: HR2 peptide (SEQ ID NO:33) derived from the HR2 region of HIV-1 gp41; experiment: HR2 peptide binding, fluorescence polarization assay; details: ability to complex with HR2 peptide denoted as yes
Description: These include a protein chip assay (using Biacore analysis) in which surface plasmon resonance is used to detect the binding, and kinetics thereof, between a synthetic peptide and an HR2 peptide; and a fluorescence polarization assay. In the fluorescence polarization assay, a detectable moiety comprising a fluorescent dye (e.g., rhodamine and/or fluorescein) was used to label HR2 peptide, and the assay was then allowed to proceed under sufficient conditions and for a sufficient period of time for labeled peptide to bind to HR1 peptide, or synthetic peptide (or trimer formed therefrom).

HIV IIIB = type: cell-based, HIV-1; details: for Antiviral activity against HIV IIIB IC50: 50% reduction in infectious virus titer; for Antiviral activity against HIV IIIB IC90: 90% reduction in infectious titer
[4] = Helicity by circular dichroism; type: physicochemical; details: at 10 μM, 25° C.
Procedure: (§1) Helicity was assessed by circular dichroism (“CD”) as follows. Briefly, CD spectra were obtained using a spectrometer equipped with a thermoelectric temperature controller. The spectra was obtained at 25° C. with 0.5 nanometer (nm) steps from 200 to 260 nm, with a 1.5 nm bandwith, and a typical averaging time of 4 seconds/step. After the cell/buffer blank was subtracted, spectra were smoothed using a third-order least-squares polynomial fit with a conservative window size to give random residuals. Raw ellipticity values were converted to mean residue ellipticity using standard methods, and plotted was the wavelength (from 200 to 260 nm) versus [θ]×10^−3 (degrees cm^2/dmol). Percent helicity values were then calculated using standard methods. Assessment of thermal stability was performed by monitoring the change in CD signal at 222 nm as temperature was raised in 2° C. steps, with 1 minute equilibration times. The thermal stability for each sample (e.g., synthetic peptide) was represented by the transition temperature (Tm) determined by the derivative method.

[5] = Thermal stability (Tm) by CD signal at 222 nm; type: physicochemical; details: at 10 μM
Procedure: as §1

[6] = target: HR2 peptide having the amino acid sequence of SEQ ID NO:33 (HIV-1); experiment: surface plasmon resonance (Biacore protein chip assay)

Row | Molecule | 50% effective concentration (EC50), blocked infection of T cells (HIV infection of T cells) [µg/mL] | Oligomerization state in solution [1] | Oligomerization [2] | HR2 peptide binding [3] | Antiviral activity against HIV IIIB IC50 (HIV IIIB) [µg/mL] | Antiviral activity against HIV IIIB IC90 (HIV IIIB) [µg/mL] | Helicity [4] [%] | Stability Tm [5] [°C] | Kd [6] [nM]
1 | DP107: HR1 peptide, also known as T-21, a synthetic peptide having the amino acid sequence of SEQ ID NO:2 (NNLLRAIEAQQHLLQLTVWGIKQLQARILAVERYLKDQ) | 1 | monomer/dimer/tetramer equilibrium |  |  |  |  |  |  | 
2 | SEQ ID NO: 38: Same as SEQ ID NO:32 except substitutions at 27, 34, 41, 48 and 23, 30, 44; Asp and Gln added to C-terminus (QARQLLSGIVQQQNNLLRAIEATQHAVQALVWGVKQLQARVLALERYIKDQ) |  |  | Trimer* | Yes | 0.18 | 0.88 | 79 | 90 | 
3 | SEQ ID NO: 39: Same as SEQ ID NO:32 except substitutions at 6, 20, 41, 48 and 9, 16, 44; Asp and Gln added to C-terminus (QARQLVSGLVQQQNNILRALEAQQHALQATVWGIKQLQARVLALERYIKDQ) |  |  | Trimer* | Yes | 0.26 | 1.20 | 63 | 68 | 
4 | QARQLVSGLVQQQNNILRALEATQHAVQALVWGVKQLQARVLALERYIK (modifications not checked) [synthetic peptide having the amino acid sequence of SEQ ID NO:35] |  |  |  |  |  |  |  |  | 21.8
